In series [1] the test system is HeLa Kyoto. As to the kind of experiment: thermal stability score vs G1/S (z-score of summed log2 fold changes over temperatures); higher = more thermally stable than in G1/S.
For series [2], the system named is HeLa Kyoto. As to the kind of experiment: melting temperature (median over replicates), in situ; higher = more thermally stable.
Series [3] relates to HeLa Kyoto. Description: solubility change mitosis vs G1/S (difference of NP-40 vs SDS log2 ratios) (log2 ratio difference); higher = more soluble in mitosis.
The subject of series [4] is HeLa Kyoto. As to the kind of experiment: solubility in G1/S (NP-40 vs SDS abundance) (log2 ratio); higher = more soluble. The conditions noted are these: cell cycle stage: G1/S.
Where [5] appears, read: cell cycle stage: early G1 (4.5 h after nocodazole release).
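Throughout, for melting temperature (median over replicates), in situ: HeLa Kyoto cells synchronized by double thymidine or nocodazole block, proteins quantified by TMT10plex mass spectrometry, three independent biological replicates.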
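Throughout, for solubility change mitosis vs G1/S (difference of NP-40 vs SDS log2 ratios): synchronized HeLa Kyoto cells (double thymidine block for G1/S, nocodazole release for mitosis), protein amounts in NP-40 versus SDS lysates quantified by mass spectrometry, three biological replicates.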
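Throughout, for solubility in G1/S (NP-40 vs SDS abundance): HeLa Kyoto cells arrested at G1/S by double thymidine block, proteins quantified by TMT10plex mass spectrometry in mild NP-40 versus SDS extracts, three biological replicates.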
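Throughout, for thermal stability score vs G1/S (z-score of summed log2 fold changes over temperatures): synchronized HeLa Kyoto cells, proteins quantified by TMT10plex mass spectrometry, three biological replicates, mitosis taken 0.5 h after nocodazole release, G1/S directly after double thymidine block.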

Regarding “MKVTVCFGRTRVVVPCGDGHMKVFSLIQQAVTRYRKAIAKDPNYWIQVHRLEHGDGGILDLDDILCDVADDKDRLVAVFDEQDPHHGGDGTSASSTGTQSPEIFGSELGTNNVSAFQPYQATSEIEVTPSVLRANMPLHVRRSSDPALIGLSTSVSDSNFSSEEPSRKNPTRWSTTAGFLKQNTAGSPKTCDRKKDENYRSLPRDTSNWSNQFQRDNARSSLSASHPMVGKWLEKQEQDEDGTEEDNSRVEPVGHADTGLEHIPNFSLDDMVKLVEVPNDGGPLGIHVVPFSARGGRTLGLLVKRLEKGGKAEHENLFRENDCIVRINDGDLRNRRFEQAQHMFRQAMRTPIIWFHVVPAANKEQYEQLSQSEKNNYYSSRFSPDSQYIDNRSVNSAGLHTVQRAPRLNHPPEQIDSHSRLPHSAHPSGKPPSAPASAPQNVFSTTVSSGYNTKKIGKRLNIQLKKGTEGLGFSITSRDVTIGGSAPIYVKNILPRGAAIQDGRLKAGDRLIEVNGVDLVGKSQEEVVSLLRSTKMEGTVSLLVFRQEDAFHPRELNAEPSQMQIPKETKAEDEDIVLTPDGTREFLTFEVPLNDSGSAGLGVSVKGNRSKENHADLGIFVKSIINGGAASKDGRLRVNDQLIAVNGESLLGKTNQDAMETLRRSMSTEGNKRGMIQLIVARRISKCNELKSPGSPPGPELPIETALDDRERRISHSLYSGIEGLDESPSRNAALSRIMGESGKYQLSPTVNMPQDDTVIIEDDRLPVLPPHLSDQSSSSSHDDVGFVTADAGTWAKAAISDSADCSLSPDVDPVLAFQREGFGRQSMSEKRTKQFSDASQLDFVKTRKSKSMDLGIADETKLNTVDDQKAGSPSRDVGPSLGLKKSSSLESLQTAVAEVTLNGDIPFHRPRPRIIRGRGCNESFRAAIDKSYDKPAVDDDDEGMETLEEDTEESSRSGRESVSTASDQPSHSLERQMNGNQEKGDKTDRKKDKTGKEKKKDRDKEKDKMKAKKGMLKGLGDMFRFGKHRKDDKIEKTGKIKIQESFTSEEERIRMKQEQERIQAKTREFRERQARERDYAEIQDFHRTFGCDDELMYGGVSSYEGSMALNARPQSPREGHMMDALYAQVKKPRNSKPSPVDSNRSTPSNHDRIQRLRQEFQQAKQDEDVEDRRRTYSFEQPWPNARPATQSGRHSVSVEVQMQRQRQEERESSQQAQRQYSSLPRQSRKNASSVSQDSWEQNYSPGEGFQSAKENPRYSSYQGSRNGYLGGHGFNARVMLETQELLRQEQRRKEQQMKKQPPSEGPSNYDSYKKVQDPSYAPPKGPFRQDVPPSPSQVARLNRLQTPEKGRPFYS [PARD3]”, the thermal stability score in series [1] (setting [5]) was 0.772; in series [1] (cell cycle stage: mitosis), 2.38. The figures for the melting temperature in series [2] (cell cycle stage: G1/S) and in series [2] (cell cycle stage: mitosis) were 47.7 °C and 49.3 °C, respectively. Further, in series [3], the “solubility change mitosis (log2)” value stood at 0.111. For the same sequence, the “solubility in G1/S (log2)” value in series [4] is -0.137.
Consider “MLCGRPRSSSDNRNFLRERAGLSSAAVQTRIGNSAASRRSPAARPPVPAPPALPRGRPGTEGSTSLSAPAVLVVAVAVVVVVVSAVAWAMANYIHVPPGSPEVPKLNVTVQDQEEHRCREGALSLLQHLRPHWDPQEVTLQLFTDGITNKLIGCYVGNTMEDVVLVRIYGNKTELLVDRDEEVKSFRVLQAHGCAPQLYCTFNNGLCYEFIQGEALDPKHVCNPAIFRLIARQLAKIHAIHAHNGWIPKSNLWLKMGKYFSLIPTGFADEDINKRFLSDIPSSQILQEEMTWMKEILSNLGSPVVLCHNDLLCKNIIYNEKQGDVQFIDYEYSGYNYLAYDIGNHFNEFAGVSDVDYSLYPDRELQSQWLRAYLEAYKEFKGFGTEVTEKEVEILFIQVNQFALASHFFWGLWALIQAKYSTIEFDFLGYAIVRFNQYFKMKPEVTALKVPE [ETNK1]”, for which the results for the thermal stability score in series [1] (setting [5]) and in series [1] (cell cycle stage: mitosis) were -1.17 and -1.91, respectively. Also, the melting temperature in series [2] (cell cycle stage: G1/S) came out at 53 °C; in series [2] (cell cycle stage: mitosis), 51.9 °C. The “solubility change mitosis (log2)” value in series [3] is -0.288. Also, in series [4], the “solubility in G1/S (log2)” value is -0.0579.
Turning to “MLDSLLALGGLVLLRDSVEWEGRSLLKALVKKSALCGEQVHILGCEVSEEEFREGFDSDINNRLVYHDFFRDPLNWSKTEEAFPGGPLGALRAMCKRTDPVPVTIALDSLSWLLLRLPCTTLCQVLHAVSHQDSCPGDSSSVGKVSVLGLLHEELHGPGPVGALSSLAQTEVTLGGTMGQASAHILCRRPRQRPTDQTQWFSILPDFSLDLQEGPSVESQPYSDPHIPPVDPTTHLTFNLHLSKKEREARDSLILPFQFSSEKQQALLRPRPGQATSHIFYEPDAYDDLDQEDPDDDLDI [ELP5]”, the values for the thermal stability score in series [1] (setting [5]) and in series [1] (cell cycle stage: mitosis) were -2.95 and -4.18, respectively. In addition, the melting temperature amounted to 54.9 °C in series [2] (cell cycle stage: G1/S) and 53.9 °C in series [2] (cell cycle stage: mitosis). Moreover, in series [3], the “solubility change mitosis (log2)” value is -0.11. Moreover, in series [4], the “solubility in G1/S (log2)” value stood at 0.313.
In the case of “MLGGSLGSRLLRGVGGSHGRFGARGVREGGAAMAAGESMAQRMVWVDLEMTGLDIEKDQIIEMACLITDSDLNILAEGPNLIIKQPDELLDSMSDWCKEHHGKSGLTKAVKESTITLQQAEYEFLSFVRQQTPPGLCPLAGNSVHEDKKFLDKYMPQFMKHLHYRIIDVSTVKELCRRWYPEEYEFAPKKAASHRALDDISESIKELQFYRNNIFKKKIDEKKRKIIENGENEKTVS [REXO2]”, the values for the thermal stability score in series [1] (setting [5]) and in series [1] (cell cycle stage: mitosis) were -2.25 and -3.59, respectively. Further, the melting temperature in series [2] (cell cycle stage: G1/S) came out at 56.8 °C; in series [2] (cell cycle stage: mitosis), 56.5 °C. Moreover, the “solubility change mitosis (log2)” value in series [3] came to 0.144. In addition, the “solubility in G1/S (log2)” value in series [4] came out at 0.239.
With “MLGRSLREVSAALKQGQITPTELCQKCLSLIKKTKFLNAYITVSEEVALKQAEESEKRYKNGQSLGDLDGIPIAVKDNFSTSGIETTCASNMLKGYIPPYNATVVQKLLDQGALLMGKTNLDEFAMGSGSTDGVFGPVKNPWSYSKQYREKRKQNPHSENEDSDWLITGGSSGGSAAAVSAFTCYAALGSDTGGSTRNPAAHCGLVGFKPSYGLVSRHGLIPLVNSMDVPGILTRCVDDAAIVLGALAGPDPRDSTTVHEPINKPFMLPSLADVSKLCIGIPKEYLVPELSSEVQSLWSKAADLFESEGAKVIEVSLPHTSYSIVCYHVLCTSEVASNMARFDGLQYGHRCDIDVSTEAMYAATRREGFNDVVRGRILSGNFFLLKENYENYFVKAQKVRRLIANDFVNAFNSGVDVLLTPTTLSEAVPYLEFIKEDNRTRSAQDDIFTQAVNMAGLPAVSIPVALSNQGLPIGLQFIGRAFCDQQLLTVAKWFEKQVQFPVIQLQELMDDCSAVLENEKLASVSLKQ [QRSL1]”, the thermal stability score in series [1] (setting [5]) is -0.191; in series [1] (cell cycle stage: mitosis) it was -0.152. For the same sequence, the values for the melting temperature in series [2] (cell cycle stage: G1/S) and in series [2] (cell cycle stage: mitosis) were 50 °C and 50.4 °C, respectively. Further, the “solubility change mitosis (log2)” value in series [3] is -0.131. Moreover, in series [4], the “solubility in G1/S (log2)” value was 0.0331.

Source of the values: the supplement of paper PMC5998384.
